Experiment [1] addresses T1, Human TLL2 CD+CUB1 truncated antigen (human, UniProt Q9Y6L7 150-463, limits assumed).
T1 construct: domain: CD+CUB1
T1 sequence (looked up): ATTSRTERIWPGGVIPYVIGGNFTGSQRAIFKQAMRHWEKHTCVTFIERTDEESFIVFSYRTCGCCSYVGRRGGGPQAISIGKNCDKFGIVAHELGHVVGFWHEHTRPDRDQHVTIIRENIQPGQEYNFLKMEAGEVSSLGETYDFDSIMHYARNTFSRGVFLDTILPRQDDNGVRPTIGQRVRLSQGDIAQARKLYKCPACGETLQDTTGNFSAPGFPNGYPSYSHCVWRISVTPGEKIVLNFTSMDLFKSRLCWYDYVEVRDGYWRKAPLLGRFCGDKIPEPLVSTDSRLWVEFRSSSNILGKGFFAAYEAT
The experiment in a line: SPR, captured mAb, HBS-EP. The method, then: (§1) Both antibodies 13Y039-4B06-4334 and 13Y039-3E07-2944 and the reverse chimeric antibodies were evaluated for binding to human TLL2 CD+CUB1 and mouse BMP1 CD+CUB1 truncated antigens by SPR on a BIACORE T200. Protein A/G was immobilised to a CM5 sensor chip via amine coupling and the antibodies were captured to the protein A/G surface. The antigens were passed over the captured antibody at various concentrations. The measured affinities to human TLL2 CD+CUB1 are shown in Table 2 and the measured affinities to mouse BMP1 CD+CUB1 are shown in Table 3.
For orientation: In SPR one partner is held on a chip, and binding of the other changes the refractive index at the surface.

The target of another experiment is T2, Human BMP1-1 (human, UniProt P13497-2 121-730, limits assumed).
T2 sequence (looked up): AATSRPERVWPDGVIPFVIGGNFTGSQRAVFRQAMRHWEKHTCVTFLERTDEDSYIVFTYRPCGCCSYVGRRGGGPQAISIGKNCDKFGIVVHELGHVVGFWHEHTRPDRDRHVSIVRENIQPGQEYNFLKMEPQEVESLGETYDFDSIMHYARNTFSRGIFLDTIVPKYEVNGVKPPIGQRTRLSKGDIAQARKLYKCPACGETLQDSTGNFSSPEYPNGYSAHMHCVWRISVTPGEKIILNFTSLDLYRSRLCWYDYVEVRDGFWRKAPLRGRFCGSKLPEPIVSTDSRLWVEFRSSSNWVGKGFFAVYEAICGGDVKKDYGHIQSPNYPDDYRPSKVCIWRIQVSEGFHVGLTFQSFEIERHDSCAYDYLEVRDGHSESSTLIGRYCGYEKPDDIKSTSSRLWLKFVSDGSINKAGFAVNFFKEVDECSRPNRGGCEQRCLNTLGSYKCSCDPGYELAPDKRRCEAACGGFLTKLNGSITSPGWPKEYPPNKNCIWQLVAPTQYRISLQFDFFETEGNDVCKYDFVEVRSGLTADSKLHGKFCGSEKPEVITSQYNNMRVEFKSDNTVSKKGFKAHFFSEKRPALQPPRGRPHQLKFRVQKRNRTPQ
The experiment in a line: cell-based or functional assay.

The target in the next experiment is T3, Mouse BMP1-3: 126-707 (mouse, UniProt P98063 126-707).
T3 sequence (looked up): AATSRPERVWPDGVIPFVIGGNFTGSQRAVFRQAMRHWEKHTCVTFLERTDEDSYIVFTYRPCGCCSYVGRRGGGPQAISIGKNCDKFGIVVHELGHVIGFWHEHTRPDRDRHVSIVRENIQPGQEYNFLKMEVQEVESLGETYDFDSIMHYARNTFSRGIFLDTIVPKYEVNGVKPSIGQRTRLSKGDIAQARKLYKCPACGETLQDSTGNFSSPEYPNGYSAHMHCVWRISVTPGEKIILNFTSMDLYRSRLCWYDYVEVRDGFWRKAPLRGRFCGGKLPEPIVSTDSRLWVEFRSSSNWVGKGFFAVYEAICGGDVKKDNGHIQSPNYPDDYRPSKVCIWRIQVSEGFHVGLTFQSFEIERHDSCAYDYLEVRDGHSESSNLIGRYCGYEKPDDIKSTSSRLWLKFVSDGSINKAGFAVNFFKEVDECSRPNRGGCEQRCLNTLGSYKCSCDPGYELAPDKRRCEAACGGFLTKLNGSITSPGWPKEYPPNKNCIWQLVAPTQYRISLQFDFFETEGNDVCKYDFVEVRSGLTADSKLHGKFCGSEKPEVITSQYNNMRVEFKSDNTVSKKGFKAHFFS
The experiment in a line: cell-based or functional assay.

The target of experiment [2] is T4, Human BMP1 CD+CUB1 truncated antigen (human, UniProt P13497 121-434, limits assumed).
T4 construct: domain: CD+CUB1
T4 sequence (looked up): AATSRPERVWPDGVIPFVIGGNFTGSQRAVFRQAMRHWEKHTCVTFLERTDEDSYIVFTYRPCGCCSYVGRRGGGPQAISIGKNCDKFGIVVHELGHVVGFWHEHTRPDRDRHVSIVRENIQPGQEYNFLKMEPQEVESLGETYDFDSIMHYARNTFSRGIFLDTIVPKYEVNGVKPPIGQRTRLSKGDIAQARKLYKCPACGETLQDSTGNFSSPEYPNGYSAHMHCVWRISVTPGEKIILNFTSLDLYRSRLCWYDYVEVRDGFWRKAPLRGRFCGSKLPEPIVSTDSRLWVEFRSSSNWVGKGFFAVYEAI
The experiment in a line: SPR, captured mAb, HBS-EP.

The target in experiment [3] is T1, Human TLL2 CD+CUB1 truncated antigen. The experiment in a line: SPR, captured mAb, HBS-EP. The protocol: as §1
The source holds these as a separate data set.

In experiment [4] the target is T5, Mouse BMP1 CD+CUB1 truncated antigen (mouse, UniProt P98063 126-439, limits assumed).
T5 construct: domain: CD+CUB1
T5 sequence (looked up): T4 sequence (looked up) with V99I, P134V, P178S, L247M, S279G
The experiment in a line: SPR, captured mAb, HBS-EP. The protocol: as §1

In experiment [5] the target is T4, Human BMP1 CD+CUB1 truncated antigen. The experiment in a line: SPR, captured mAb, enzyme dilution buffer.

Where a chain is given by its changes, count along the chain named. “And” between values parts separate entries of the source, which are not always exact repeats. Equal values may be shown once. Read-outs that look alike come from different tables or passages of the source.

B1: 13Y039-4B06-4334 human variable region on mouse IgG2a LAGA Fc, mouse cKappa (Compound A) (antibody)
heavy: QVQLVQSGAEVKKPGASVKVSCKASGYTFLGYYMSWVRQAPGQGLEWMGWINPLSGETNYAQKFQGRVTMTRDTSISTAYMELSRLRSDDTAVYYCARDTGELDGMNWYFDLWGRGTLVTVSSAKTTAPSVYPLAPVCGDTTGSSVTLGCLVKGYFPEPVTLTWNSGSLSSGVHTFPAVLQSDLYTLSSSVTVTSSTWPSQSITCNVAHPASSTKVDKKIEPRGPTIKPCPPCKCPAPNLAGAPSVFIFPPKIKDVLMISLSPIVTCVVVDVSEDDPDVQISWFVNNVEVHTAQTQTHREDYNSTLRVVSALPIQHQDWMSGKEFKCKVNNKDLPAPIERTISKPKGSVRAPQVYVLPPPEEEMTKKQVTLTCMVTDFMPEDIYVEWTNNGKTELNYKNTEPVLDSDGSYFMYSKLRVEKKNWVERNSYSCSVVHEGLHNHHTTKSFSRTPGK
light: EIVLTQSPATLSLSPGERATLSCRASQSVSSYLAWYQQKPGQAPRLLIYDASNRATGIPARFSGSGSGTDFTLTISSLEPEDFAVYYCQQSDSWPPTFGGGTKVEIKRADAAPTVSIFPPSSEQLTSGGASVVCFLNNFYPKDINVKWKIDGSERQNGVLNSWTDQDSKDSTYSMSSTLTLTKDEYERHNSYTCEATHKTSTSPIVKSFNRNEC
notes: Reverse chimera; the printed variable regions are those of 4B06-4334; also called 13Y039-4B06-4334 reverse chimera mouse IgG2a LAGA; 13Y039-4B06-4334, mIgG2a LAGA
In general, Kd refers to a measure of binding affinity in units of concentration. High values mean lower affinity, low ones higher affinity. In the case of B1, the Kd in experiment [1] is 3.54 nM; in experiment [2], 2.33 nM; in experiment [3], 3.55 nM; in experiment [4], 0.82 nM and 1.98 nM; in experiment [5], 0.04 nM. Further, the “pKi, app, FRET enzyme activity, Human BMP1” value with Human BMP1-1 is 12.3. The “pKi, app, FRET enzyme activity, Mouse BMP1” value in the experiment with Mouse BMP1-3: 126-707 worked out at 11.4.

Source of the values: patent US20230279089A1 (GlaxoSmithKline, published 2023).
